doi:10.1101/509869 (bioRxiv, 2019)

B1: TEX12 (human, amino acids 1-123, full length) (natural protein, UniProt Q9BXU0 1-123, looked up)
chain: MMANHLVKPDNRNCKRPRELESPVPDSPQLSSLGKSDSSFSEISGLFYKDEALEKDLNDVSKEINLMLSTYAKLLSERAAVDASYIDEIDELFKEANAIENFLIQKREFLRQRFTVIANTLHR
B2: TEX12core (human TEX12, amino acids 49-123) (domain or fragment, UniProt Q9BXU0 49-123, looked up)
chain: KDEALEKDLNDVSKEINLMLSTYAKLLSERAAVDASYIDEIDELFKEANAIENFLIQKREFLRQRFTVIANTLHR

Biological target: the molecule itself
Assay: SEC-MALS

| Protein | stoichiometry N |
| --- | --- |
| B1 | 2 |
| B2 | 2 |
